One data set has as its target T1, SaDyP1 (Streptomyces avermitilis, UniProt Q82QF8).
T1 construct: gene SAVERM_549
T1 sequence (Q82QF8 1-442): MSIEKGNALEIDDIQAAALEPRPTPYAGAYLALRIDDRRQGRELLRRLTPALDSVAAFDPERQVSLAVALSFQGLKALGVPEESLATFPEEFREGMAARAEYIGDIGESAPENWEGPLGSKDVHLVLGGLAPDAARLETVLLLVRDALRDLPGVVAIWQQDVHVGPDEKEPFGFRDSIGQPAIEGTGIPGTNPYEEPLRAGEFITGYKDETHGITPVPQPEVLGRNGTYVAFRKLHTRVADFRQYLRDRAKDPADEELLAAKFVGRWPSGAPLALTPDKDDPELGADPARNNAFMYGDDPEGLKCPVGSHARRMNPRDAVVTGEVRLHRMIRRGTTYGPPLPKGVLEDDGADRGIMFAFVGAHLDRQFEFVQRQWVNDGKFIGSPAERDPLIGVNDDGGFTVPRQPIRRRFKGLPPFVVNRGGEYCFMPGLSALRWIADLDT
In words: initial-rate peroxidase assay, absorbance […] nm, Haldane fit. In kind it is biochemical. As to conditions: 0.20 mM H2O2, 25 mM citrate, pH 4.0 in Table 3 and methods (pH 4.5 in Figure 5 legend), substrate inhibition model; substrate inhibition constant (Haldane).

Substrate in data set [1]: CCn1c(=NN=c2sc3cc(S(=O)(=O)O)ccc3n2CC)sc2cc(S(=O)(=O)O)ccc21
In words: purified protein. In kind it is biochemical, Streptomyces avermitilis. As to conditions: 0.20 mM H2O2, 25 mM citrate, pH 4.0 in Table 3 and methods (pH 4.5 in Figure 5 legend), substrate inhibition model.

Substrate in data set [2]: COc1cccc(OC)c1O
The experiment in a line: purified protein. In kind it is biochemical, Streptomyces avermitilis. Particulars: 0.20 mM H2O2, 25 mM citrate, pH 4.0.

As usually defined, the Km is the concentration of substrate that gives half-maximal velocity. A word on the kcat: it is the maximal rate divided by the concentration of active sites. As usually defined, the kcat/Km is the turnover number divided by the Michaelis constant.

For the molecule `CCn1c(=NN=c2sc3cc(S(=O)(=O)O)ccc3n2CC)sc2cc(S(=O)(=O)O)ccc21` [ABTS, 2,2′-azinobis [3-ethylbenzothiazoline-6-sulfonic acid]], the “Ki” value at SaDyP1 is listed as 13 mM.

B1: SaDyP1 (Streptomyces avermitilis MA-4680 = NBRC 14893) (protein)
chain: MSIEKGNALEIDDIQAAALEPRPTPYAGAYLALRIDDRRQGRELLRRLTPALDSVAAFDPERQVSLAVALSFQGLKALGVPEESLATFPEEFREGMAARAEYIGDIGESAPENWEGPLGSKDVHLVLGGLAPDAARLETVLLLVRDALRDLPGVVAIWQQDVHVGPDEKEPFGFRDSIGQPAIEGTGIPGTNPYEEPLRAGEFITGYKDETHGITPVPQPEVLGRNGTYVAFRKLHTRVADFRQYLRDRAKDPADEELLAAKFVGRWPSGAPLALTPDKDDPELGADPARNNAFMYGDDPEGLKCPVGSHARRMNPRDAVVTGEVRLHRMIRRGTTYGPPLPKGVLEDDGADRGIMFAFVGAHLDRQFEFVQRQWVNDGKFIGSPAERDPLIGVNDDGGFTVPRQPIRRRFKGLPPFVVNRGGEYCFMPGLSALRWIADLDT
With B1, in the data set “purified protein [1]”, the Km came out at 1200 µM, the catalytic constant (kcat) turned out to be 2.8 s⁻¹ and the kcat/Km was determined as 2400 M⁻¹ s⁻¹. Besides, in the data set “purified protein [2]”, the Michaelis-Menten constant (Km) came to 610 µM, the kcat was determined as 0.23 s⁻¹ and the kcat/Km was 380 M⁻¹ s⁻¹.

The record behind these values is PMC8395514, “Characterization of Class V DyP-Type Peroxidase SaDyP1 from Streptomyces avermitilis and Evaluation of SaDyPs Expression in Mycelium” (International Journal of Molecular Sciences, 2021).
